# Data: IntAct's records for PubMed 27524201
# B1: Kremen protein 1 (Homo sapiens), Q96MU8 (parent)
# chain: MAPPAARLALLSAAALTLAARPAPSPGLGPECFTANGADYRGTQNWTALQGGKPCLFWNETFQHPYNTLKYPNGEGGLGEHNYCRNPDGDVSPWCYVAEHEDGVYWKYCEIPACQMPGNLGCYKDHGNPPPLTGTSKTSNKLTIQTCISFCRSQRFKFAGMESGYACFCGNNPDYWKYGEAASTECNSVCFGDHTQPCGGDGRIILFDTLVGACGGNYSAMSSVVYSPDFPDTYATGRVCYWTIRVPGASHIHFSFPLFDIRDSADMVELLDGYTHRVLARFHGRSRPPLSFNVSLDFVILYFFSDRINQAQGFAVLYQAVKEELPQERPAVNQTVAEVITEQANLSVSAARSSKVLYVITTSPSHPPQTVPGSNSWAPPMGAGSHRVEGWTVYGLATLLILTVTAIVAKILLHVTFKSHRVPASGDLRDCHQPGTSGEIWSIFYKPSTSISIFKKKLKGQSQQDDRNPLVSD
# B2: Kremen protein 1 (Homo sapiens), Q96MU8 (parent)
# chain: B1 chain
# partner: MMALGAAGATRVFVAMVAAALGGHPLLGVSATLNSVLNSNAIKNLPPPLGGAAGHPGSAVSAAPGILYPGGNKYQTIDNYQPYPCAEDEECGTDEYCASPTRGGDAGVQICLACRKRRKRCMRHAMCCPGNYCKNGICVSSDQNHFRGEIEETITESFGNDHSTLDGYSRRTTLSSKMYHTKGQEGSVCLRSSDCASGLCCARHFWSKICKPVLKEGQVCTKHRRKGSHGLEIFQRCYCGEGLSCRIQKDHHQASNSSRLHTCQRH
# Variants of: B1
# Details: with lrp6_human LRP6, O75581
# Chain of lrp6_human LRP6, O75581 (O75581 whole entry): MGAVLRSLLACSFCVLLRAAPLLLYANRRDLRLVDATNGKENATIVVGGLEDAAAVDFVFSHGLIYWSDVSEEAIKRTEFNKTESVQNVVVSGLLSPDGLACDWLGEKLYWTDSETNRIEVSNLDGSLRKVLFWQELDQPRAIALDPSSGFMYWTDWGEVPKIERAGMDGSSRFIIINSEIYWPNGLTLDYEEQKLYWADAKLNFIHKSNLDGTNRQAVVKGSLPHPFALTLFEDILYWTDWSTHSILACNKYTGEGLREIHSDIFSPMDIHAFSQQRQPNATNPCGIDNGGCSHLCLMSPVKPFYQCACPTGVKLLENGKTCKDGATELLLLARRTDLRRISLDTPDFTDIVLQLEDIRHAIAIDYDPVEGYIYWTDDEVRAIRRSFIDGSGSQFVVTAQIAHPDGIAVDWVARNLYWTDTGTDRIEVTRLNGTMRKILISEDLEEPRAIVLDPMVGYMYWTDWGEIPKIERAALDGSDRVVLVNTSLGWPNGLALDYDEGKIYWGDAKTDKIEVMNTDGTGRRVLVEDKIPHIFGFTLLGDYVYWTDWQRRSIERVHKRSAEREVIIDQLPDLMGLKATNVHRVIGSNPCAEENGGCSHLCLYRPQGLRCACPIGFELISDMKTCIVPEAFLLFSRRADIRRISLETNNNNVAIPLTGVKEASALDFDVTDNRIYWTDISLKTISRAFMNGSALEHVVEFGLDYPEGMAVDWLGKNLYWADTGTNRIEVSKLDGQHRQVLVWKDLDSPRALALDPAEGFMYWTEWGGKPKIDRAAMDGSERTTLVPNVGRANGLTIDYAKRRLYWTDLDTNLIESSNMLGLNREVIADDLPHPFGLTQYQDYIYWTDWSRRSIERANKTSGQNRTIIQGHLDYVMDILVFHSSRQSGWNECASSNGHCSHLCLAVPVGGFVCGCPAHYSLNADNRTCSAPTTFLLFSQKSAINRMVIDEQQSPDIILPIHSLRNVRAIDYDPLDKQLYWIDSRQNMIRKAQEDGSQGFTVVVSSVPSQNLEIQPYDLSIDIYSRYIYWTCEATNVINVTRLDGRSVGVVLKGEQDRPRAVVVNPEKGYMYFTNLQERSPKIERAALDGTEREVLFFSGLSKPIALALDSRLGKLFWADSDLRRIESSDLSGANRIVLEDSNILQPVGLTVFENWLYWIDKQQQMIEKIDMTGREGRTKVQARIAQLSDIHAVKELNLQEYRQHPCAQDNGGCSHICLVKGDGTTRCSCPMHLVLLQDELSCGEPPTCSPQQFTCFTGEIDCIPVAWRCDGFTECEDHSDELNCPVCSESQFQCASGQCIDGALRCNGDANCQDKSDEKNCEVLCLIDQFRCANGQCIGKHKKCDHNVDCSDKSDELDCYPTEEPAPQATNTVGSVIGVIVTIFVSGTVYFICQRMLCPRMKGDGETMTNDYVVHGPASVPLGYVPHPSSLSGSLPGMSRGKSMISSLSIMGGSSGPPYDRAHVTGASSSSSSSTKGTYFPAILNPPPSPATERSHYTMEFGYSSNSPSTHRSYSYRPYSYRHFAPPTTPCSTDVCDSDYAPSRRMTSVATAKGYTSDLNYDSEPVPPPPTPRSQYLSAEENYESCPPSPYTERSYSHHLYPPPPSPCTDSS
row,Variant,effect of a mutation on the interaction
1,A311S,disrupting interaction strength

# Variants of: B2
# Details: with dkk1_human DKK1, O94907
row,Variant,effect of a mutation on the interaction
1,D90N,disrupting interaction strength
2,V189N;F191S,disrupting interaction strength
3,A311S,disrupting interaction strength
